Our source for the abundance fitness values is the Human Domainome abundance scans (Beltran et al. 2025).

B1: Segment polarity protein dishevelled homolog DVL-3, residues 2 to 81; numbered along this chain, Q92997 (parent)
chain: GETKIIYHLDGQETPYLVKLPLPAERVTLADFKGVLQRPSYKFFFKSMDDDFGVVKEEISDDNAKLPCFNGRVVSWLVSA

± gives the uncertainty stated by the source.

The variants in the data set derive from B1. Put plainly: abundance fitness (aPCA) (normalised: wild type 0, dead -1); higher = more abundant; growth selection in yeast, the domain comes from the species named. Particulars: Homo sapiens.
Regarding GETKIIYHLDGQETPYLVKLPLPAEIVTLADFKGVLQRPSYKFFFKSMDDDFGVVKEEISDDNAKLPCFNGRVVSWLVSA [R26I], the abundance fitness is -0.34 ± 0.14. As for GETKIIYHLDGQETPYLVKLPLPAELVTLADFKGVLQRPSYKFFFKSMDDDFGVVKEEISDDNAKLPCFNGRVVSWLVSA [R26L], the abundance fitness was -0.081 ± 0.05.

As to GETKIIYHLDGQETPYLVKLPLPAEDVTLADFKGVLQRPSYKFFFKSMDDDFGVVKEEISDDNAKLPCFNGRVVSWLVSA [R26D], the abundance fitness was -0.027 ± 0.091. Take GETKIIYHLDGQETPYLVKLPLPAEYVTLADFKGVLQRPSYKFFFKSMDDDFGVVKEEISDDNAKLPCFNGRVVSWLVSA [R26Y]: the abundance fitness is -0.414 ± 0.13. As to GETKIIYHLDGQETPYLVKLPLPAEQVTLADFKGVLQRPSYKFFFKSMDDDFGVVKEEISDDNAKLPCFNGRVVSWLVSA [R26Q], the abundance fitness came to 0.123 ± 0.056. As for GETKIIYHLDGQETPYLVKLPLPAESVTLADFKGVLQRPSYKFFFKSMDDDFGVVKEEISDDNAKLPCFNGRVVSWLVSA [R26S], the abundance fitness is -0.068 ± 0.055. The value for GETKIIYHLDGQETPYLVKLPLPAEMVTLADFKGVLQRPSYKFFFKSMDDDFGVVKEEISDDNAKLPCFNGRVVSWLVSA [R26M] was -0.276 ± 0.088; that for GETKIIYHLDGQETPYLVKLPLPAEAVTLADFKGVLQRPSYKFFFKSMDDDFGVVKEEISDDNAKLPCFNGRVVSWLVSA [R26A] was 0.027 ± 0.053; that for GETKIIYHLDGQETPYLVKLPLPAETVTLADFKGVLQRPSYKFFFKSMDDDFGVVKEEISDDNAKLPCFNGRVVSWLVSA [R26T] was -0.188 ± 0.079.

In the case of GETKIIYHLDGQETPYLVKLPLPAEKVTLADFKGVLQRPSYKFFFKSMDDDFGVVKEEISDDNAKLPCFNGRVVSWLVSA [R26K], the abundance fitness is 0.039 ± 0.066. GETKIIYHLDGQETPYLVKLPLPAEPVTLADFKGVLQRPSYKFFFKSMDDDFGVVKEEISDDNAKLPCFNGRVVSWLVSA [R26P]: the abundance fitness is -0.675 ± 0.11. For GETKIIYHLDGQETPYLVKLPLPAEWVTLADFKGVLQRPSYKFFFKSMDDDFGVVKEEISDDNAKLPCFNGRVVSWLVSA [R26W], the abundance fitness was -0.78 ± 0.11. On to GETKIIYHLDGQETPYLVKLPLPAEEVTLADFKGVLQRPSYKFFFKSMDDDFGVVKEEISDDNAKLPCFNGRVVSWLVSA [R26E], for which the abundance fitness turned out to be 0.086 ± 0.054. With GETKIIYHLDGQETPYLVKLPLPAEVVTLADFKGVLQRPSYKFFFKSMDDDFGVVKEEISDDNAKLPCFNGRVVSWLVSA [R26V], the abundance fitness is -0.08 ± 0.057. GETKIIYHLDGQETPYLVKLPLPAEHVTLADFKGVLQRPSYKFFFKSMDDDFGVVKEEISDDNAKLPCFNGRVVSWLVSA [R26H]: the abundance fitness is -0.182 ± 0.12. The value for GETKIIYHLDGQETPYLVKLPLPAEGVTLADFKGVLQRPSYKFFFKSMDDDFGVVKEEISDDNAKLPCFNGRVVSWLVSA [R26G] was -0.441 ± 0.057; that for GETKIIYHLDGQETPYLVKLPLPAECVTLADFKGVLQRPSYKFFFKSMDDDFGVVKEEISDDNAKLPCFNGRVVSWLVSA [R26C] was -0.102 ± 0.09.

For GETKIIYHLDGQETPYLVKLPLPAERVPLADFKGVLQRPSYKFFFKSMDDDFGVVKEEISDDNAKLPCFNGRVVSWLVSA [T28P], the abundance fitness is -0.555 ± 0.1. As to GETKIIYHLDGQETPYLVKLPLPAERVCLADFKGVLQRPSYKFFFKSMDDDFGVVKEEISDDNAKLPCFNGRVVSWLVSA [T28C], the abundance fitness was -0.793 ± 0.16. As for GETKIIYHLDGQETPYLVKLPLPAERVDLADFKGVLQRPSYKFFFKSMDDDFGVVKEEISDDNAKLPCFNGRVVSWLVSA [T28D], the figure is -0.401 ± 0.14; as for GETKIIYHLDGQETPYLVKLPLPAERVNLADFKGVLQRPSYKFFFKSMDDDFGVVKEEISDDNAKLPCFNGRVVSWLVSA [T28N], -0.715 ± 0.15. The value for GETKIIYHLDGQETPYLVKLPLPAERVQLADFKGVLQRPSYKFFFKSMDDDFGVVKEEISDDNAKLPCFNGRVVSWLVSA [T28Q] was -0.811 ± 0.13; that for GETKIIYHLDGQETPYLVKLPLPAERVLLADFKGVLQRPSYKFFFKSMDDDFGVVKEEISDDNAKLPCFNGRVVSWLVSA [T28L] was -0.73 ± 0.091. Take GETKIIYHLDGQETPYLVKLPLPAERVMLADFKGVLQRPSYKFFFKSMDDDFGVVKEEISDDNAKLPCFNGRVVSWLVSA [T28M]: the abundance fitness was -0.604 ± 0.11.

Turning to GETKIIYHLDGQETPYLVKLPLPAERVGLADFKGVLQRPSYKFFFKSMDDDFGVVKEEISDDNAKLPCFNGRVVSWLVSA [T28G], the abundance fitness was -0.597 ± 0.064. For GETKIIYHLDGQETPYLVKLPLPAERVELADFKGVLQRPSYKFFFKSMDDDFGVVKEEISDDNAKLPCFNGRVVSWLVSA [T28E], the abundance fitness was -0.985 ± 0.14. As for GETKIIYHLDGQETPYLVKLPLPAERVKLADFKGVLQRPSYKFFFKSMDDDFGVVKEEISDDNAKLPCFNGRVVSWLVSA [T28K], the abundance fitness was -0.52 ± 0.1.

Consider GETKIIYHLDGQETPYLVKLPLPAERVRLADFKGVLQRPSYKFFFKSMDDDFGVVKEEISDDNAKLPCFNGRVVSWLVSA [T28R], for which the abundance fitness was -0.379 ± 0.053. With GETKIIYHLDGQETPYLVKLPLPAERVHLADFKGVLQRPSYKFFFKSMDDDFGVVKEEISDDNAKLPCFNGRVVSWLVSA [T28H], the abundance fitness is -0.411 ± 0.14. GETKIIYHLDGQETPYLVKLPLPAERVFLADFKGVLQRPSYKFFFKSMDDDFGVVKEEISDDNAKLPCFNGRVVSWLVSA [T28F]: the abundance fitness was -0.321 ± 0.16. For the variant GETKIIYHLDGQETPYLVKLPLPAERVILADFKGVLQRPSYKFFFKSMDDDFGVVKEEISDDNAKLPCFNGRVVSWLVSA [T28I], the abundance fitness was -0.578 ± 0.15. As to GETKIIYHLDGQETPYLVKLPLPVERVTLADFKGVLQRPSYKFFFKSMDDDFGVVKEEISDDNAKLPCFNGRVVSWLVSA [A24V], the abundance fitness was -0.42 ± 0.074.

On to GETKIIYHLDGQETPYLVKLPLPWERVTLADFKGVLQRPSYKFFFKSMDDDFGVVKEEISDDNAKLPCFNGRVVSWLVSA [A24W], for which the abundance fitness is -0.235 ± 0.08.

For the variant GETKIIYHLDGQETPYLVKLPLPYERVTLADFKGVLQRPSYKFFFKSMDDDFGVVKEEISDDNAKLPCFNGRVVSWLVSA [A24Y], the abundance fitness is -0.325 ± 0.15.
